# Laboratory results published in the RNAGym collection of RNA variant scans (doi:10.7554/elife.80360).
# B1: HDV Ribozyme (parent)
# chain: GGCCGGCAUGGUCCCAGCCUCCUCGCUGGCGCCGGCUGGGCAACAUUCCGAGGGGACCGUCCCCUCGGUAAUGGCGAAUGGGACCCA
# Variants of: B1
# Assay: self-cleavage, relative activity (ratio to wild type); higher = more cleavage; co-transcriptional
row,Variant,self-cleavage
1,C15A G40A,0.77
2,G39C C64U,0.224
3,C32G C33A,0.0615
4,G34U G73C,0.289
5,C4A G28U,0.0692
6,G6U C14A,0.0692
7,G25A G76U,0.3
8,G53A A78G,0.618
9,C66G A83C,0.178
10,G5C G25A,0.0639
11,U79C A87C,0.35
12,C7U U46A,0.623
13,G31A U60C,0.32
14,G50A A83G,0.99
15,A16C A77C,0.266
16,U27C C33U,0.453
17,G5C C64U,0.332
18,C44U G50C,0.437
19,C48U G76C,1.16
20,C13G U65G,0.115
21,A8G G25A,0.0639
22,C22U U69A,0.554
23,C32G G39A,0.157
24,C14A A43U,0.145

row,Variant,self-cleavage
1,G10U A78C,0.0499
2,C58U G68U,1.07
3,U37A A77U,0.104
4,G10A C21A,0
5,U12G U79C,0.243
6,U9A G10C,0.875
7,G35C C63U,0.492
8,G17A G54U,0.554
9,C32A G34C,0.208
10,C33G G53U,0.185
11,U37C U46C,0.914
12,C44A C63U,0.973
13,U27G C33U,0.935
14,C14G G25C,0
15,G5U C26U,0.864
16,C21A G81C,0.0923
17,C15A G38U,0
18,C48G C85A,0.8
19,G40A A77U,0.523
20,C44G A51U,0.591
21,C19A A70U,0.277
22,C15G C33G,0.0489
23,U20C C63U,0.0898
24,G59A C85A,1.1

row,Variant,self-cleavage
1,C19G G59A,0.0542
2,G54U G67C,0.694
3,G31U C33G,0.0639
4,G39C G55C,0.31
5,G34C G82U,0.0652
6,C61A A71C,1.12
7,U27A A45G,0.745
8,A16U C84G,1.09
9,C3A U46G,0.026
10,C84G C86A,0.764
11,G5U C63U,0.38
12,C44U G67A,0.82
13,C30U G39C,0.0314
14,A83G C86A,0.941
15,G59U C61U,0.997
16,G1A A77U,0
17,G11U G29C,0.0231
18,G28A G55A,0.153
19,U65C C84U,0.703
20,A45U A83C,0.0875
21,G2C C85U,0.0287
22,A45C G76C,0.68
23,C14G C19U,0.0852
24,G28C C32G,0

row,Variant,self-cleavage
1,G40U C57A,0.719
2,U12G G40C,0.123
3,G29A A70C,0.0978
4,U20C C22U,0.125
5,G5A G74A,0.0326
6,G11U C75A,0.0231
7,C58A G76U,1.05
8,U9C A45G,0.95
9,C3G A70G,0.475
10,C33A U69G,0.287
11,G52A G73A,0.602
12,C63U A87G,0.927
13,G73A C85U,0.73
14,C13A A42C,0.0594
15,C57G G59U,0.978
16,C41G A43U,0.277
17,C4A C30A,0.0519
18,C32U C33A,0.161
19,U20C C21U,0.0339
20,C32G G80U,0.0831
21,G29A C30U,0.095
22,C36G A42U,0.113
23,G31A C85U,0.404
24,C14A G28A,0.141

row,Variant,self-cleavage
1,G28C G82U,0.102
2,U60C G76U,1.05
3,G17C C22A,0
4,A43C C66U,0.306
5,C13A G55A,0.222
6,G29A G68A,0.107
7,C3G C4A,0.0767
8,U12G U23C,0.997
9,U20C A77G,0.208
10,G39A G68A,0.415
11,G5C U27A,0.227
12,G31C G82A,0.0563
13,U37C U72C,0.462
14,C3U U65C,0.78
15,C13A C64G,0.19
16,C7G G55C,0.214
17,U12A A77G,0.151
18,C22A G82C,0
19,G68C U79C,0.302
20,U27G G76A,0.98
21,A51C U65G,0.937
22,C7A A43G,0
23,C49U C63U,0.958
24,C14U G35C,0.123

row,Variant,self-cleavage
1,C3G G76U,0.926
2,C19G U47C,0.0852
3,C13U A16G,0.978
4,U37G G55C,0.141
5,C13A C66U,0.125
6,G10A U47C,0.554
7,U37A G81U,0.0875
8,U20G C41U,0.287
9,G80C C85U,0.194
10,U12C G74A,0.0519
11,A43C C85A,0.361
12,C4G C44G,0.0449
13,C36U C84G,0.324
14,G6C G81A,0.0811
15,G2A C22A,0.0205
16,U23C A87U,0.953
17,U46A U79A,0.504
18,G28U A87C,0.113
19,G28U A78C,0.0923
20,G67U C84A,0.746
21,C14U G34U,0.248
22,C4A C44A,0.148
23,G1U G11A,0.364
24,G31A A51U,0.283

row,Variant,self-cleavage
1,C26A A83G,0.729
2,C66A A83U,0.225
3,U69A G73U,0.494
4,C32A G67C,0.154
5,C63G G67C,0.342
6,G6C G67A,0.35
7,C33A C57U,0.46
8,G25U A77G,0.145
9,U12G C14G,0
10,G38U C62U,0.337
11,C64U G81C,0.315
12,U12C G52A,0.554
13,G17C G38U,0.0898
14,U37A C48G,0.148
15,G50U A70G,0.846
16,G29U G53C,0.125
17,C7G C61U,0.237
18,G5C G67A,0.353
19,U12C A45G,0.277
20,C36G C63U,0.213
21,U46C G67U,0.831
22,C41G U47C,0.633
23,C4G C48A,0.59
